Reference: patent publication US20240425848A1
Blank lines part the entries; values can stand above or below the substance they belong to.

Target: histone H3 trimethylated at lysine 9 (H3K9me3) in chromatin of NIH-3T3 cells (UniProt P68433)

- score: coefficient of the linear model for the difference between TnH and Tn5 enrichment (scGET-seq, NIH-3T3), region chrUn JH584304:0-114452, cell group 0 (G1/S): 0.198
Substance: TnH #3: 112aaCD (HP1α)-3×(TGS)-Tn5

- score: coefficient of the linear model for the difference between TnH and Tn5 enrichment (scGET-seq, NIH-3T3), region chrUn JH584304:0-114452, cell group 1 (G2/M): -0.133
- score: coefficient of the linear model for the difference between TnH and Tn5 enrichment (scGET-seq, NIH-3T3), region chrUn JH584304:0-114452, cell group 2 (G2/M): -0.105
- score: coefficient of the linear model for the difference between TnH and Tn5 enrichment (scGET-seq, NIH-3T3), region chrUn JH584304:0-114452, cell group 3 (G1/S): 0.329
- score: coefficient of the linear model for the difference between TnH and Tn5 enrichment (scGET-seq, NIH-3T3), region chrUn JH584304:0-114452, cell group 4 (G1/S): 0.067
- score: coefficient of the linear model for the difference between TnH and Tn5 enrichment (scGET-seq, NIH-3T3), region chrUn JH584304:0-114452, cell group 5 (G2/M): -0.146
- score: coefficient of the linear model for the difference between TnH and Tn5 enrichment (scGET-seq, NIH-3T3), region chrUn JH584304:0-114452, cell group 6 (G1/S): 0.138
- score: coefficient of the linear model for the difference between TnH and Tn5 enrichment (scGET-seq, NIH-3T3), region chrUn JH584304:0-114452, cell group 7 (G2/M): -0.189
- score: coefficient of the linear model for the difference between TnH and Tn5 enrichment (scGET-seq, NIH-3T3), region chrUn JH584304:0-114452, cell group 8 (G2/M): -0.287
- score: coefficient of the linear model for the difference between TnH and Tn5 enrichment (scGET-seq, NIH-3T3), region chrUn JH584304:0-114452, cell group 9 (G1/S): -0.523
- score: coefficient of the linear model for the difference between TnH and Tn5 enrichment (scGET-seq, NIH-3T3), region chrUn JH584304:0-114452, cell group 10 (G2/M): -0.073
- score: coefficient of the linear model for the difference between TnH and Tn5 enrichment (scGET-seq, NIH-3T3), region chrUn JH584304:0-114452, cell group 11 (G1/S): -0.457
- score: coefficient of the linear model for the difference between TnH and Tn5 enrichment (scGET-seq, NIH-3T3), region chrUn JH584304:0-114452, cell group 12 (G1/S): 0.163
- score: coefficient of the linear model for the difference between TnH and Tn5 enrichment (scGET-seq, NIH-3T3), region chrUn JH584304:0-114452, cell group 13 (G2/M): -0.528
- score: coefficient of the linear model for the difference between TnH and Tn5 enrichment (scGET-seq, NIH-3T3), region chrUn JH584304:0-114452, cell group 14 (G2/M): -0.28
- score: coefficient of the linear model for the difference between TnH and Tn5 enrichment (scGET-seq, NIH-3T3), region chrUn JH584304:0-114452, cell group 15 (G1/S): -0.47
- score: coefficient of the linear model for the difference between TnH and Tn5 enrichment (scGET-seq, NIH-3T3), region chrUn JH584304:0-114452, cell group 16 (G1/S): 0.576
- score: coefficient of the linear model for the difference between TnH and Tn5 enrichment (scGET-seq, NIH-3T3), region chrUn JH584304:0-114452, cell group 17 (G2/M): 0.468
- score: coefficient of the linear model for the difference between TnH and Tn5 enrichment (scGET-seq, NIH-3T3), region chrUn JH584304:0-114452, cell group 18 (G1/S): -0.089
- score: coefficient of the linear model for the difference between TnH and Tn5 enrichment (scGET-seq, NIH-3T3), region chrUn JH584304:0-114452, cell group 19 (G1/S): -0.129
- score: coefficient of the linear model for the difference between TnH and Tn5 enrichment (scGET-seq, NIH-3T3), region chrUn JH584304:0-114452, cell group 20 (G2/M): -0.011
- score: coefficient of the linear model for the difference between TnH and Tn5 enrichment (scGET-seq, NIH-3T3), region chrUn JH584304:0-114452, cell group 21 (G2/M): 0.138
Substance: TnH #3: 112aaCD (HP1α)-3×(TGS)-Tn5 (enzyme)
